For assay [1], the target named is T1, Toll-like receptor 4 (TLR4), human (human, UniProt O00206 24-839).
T1 construct: whole, on cells; also called hTLR4; human TLR4
Nature of the assay: conclusion of Experimental Example 8 (SPR on TIR-domain peptides, data not given; confocal microscopy).

Assay [2] addresses T2, MyD88 (myeloid differentiation 88), in THP1 human monocytes (human, UniProt Q99836 1-296).
T2 construct: whole, on cells; Endogenous intracellular protein seen by immunofluorescence; Species follows from the THP1 human cells
Briefly: confocal immunofluorescence, THP1 cells treated with TIP1-FITC and LPS. As for the experimental part:
(§1) RAW 264.7 cells and THP1 cells were dispensed into 24-well plates to a cell number of 2×10⁵ cells/well, and then grown in an incubator overnight. Subsequently, combined treatment with TIP1 and LPS was performed. After 24 hours, the RAW 264.7 cells and the THP1 cells were fixed with 3.7% formaldehyde (Sigma-Aldrich Co. LLC) for 15 minutes, and immersed into 0.2% Triton X-100 (AMRESCO, Solon, Ohio, USA) for 15 minutes. Then, washing with PBS was performed three times and blocking with 2% BSA solution was performed. […] Subsequently, the cells were stained at room temperature for 15 minutes using 5 μM Hoechst 33258 (Sigma-Aldrich Co.), and the number of the fluorescently stained cells was counted using a confocal laser scanning microscope (LSM-700, Carl Zeiss MicroImaging GmbH). The images were analyzed using Zen 2009 software.
(§2) In addition, in order to identify binding of TIP1 to TLR4, TIP1-FITC was prepared by binding fluorescein isothiocyanate (FITC) to the N-terminus of TIP1. The THP1 cells in Example 1-2 were subjected to treatment with TIP1 (TIP1-FITC) or to combined treatment with LPS and TIP1, and then the number of fluorescently stained cells were counted using immunofluorescent staining and a confocal microscope according to the method described in Examples 2-4, thereby analyzing interactions between the proteins. […]

Assay [3] has as its target T1, Toll-like receptor 4 (TLR4), human. Briefly: confocal laser scanning microscopy, THP1 cells treated with TIP1-FITC with or without LPS. As for the experimental part: as §1, §2

Primed or numbered codes have the meaning given here. Ends that are not written are not given here. FITC′ = fluorescein isothiocyanate

The text below walks through data of patent US20200140504A1 (GENESEN, published 2020).

T1 sequence (O00206 24-839): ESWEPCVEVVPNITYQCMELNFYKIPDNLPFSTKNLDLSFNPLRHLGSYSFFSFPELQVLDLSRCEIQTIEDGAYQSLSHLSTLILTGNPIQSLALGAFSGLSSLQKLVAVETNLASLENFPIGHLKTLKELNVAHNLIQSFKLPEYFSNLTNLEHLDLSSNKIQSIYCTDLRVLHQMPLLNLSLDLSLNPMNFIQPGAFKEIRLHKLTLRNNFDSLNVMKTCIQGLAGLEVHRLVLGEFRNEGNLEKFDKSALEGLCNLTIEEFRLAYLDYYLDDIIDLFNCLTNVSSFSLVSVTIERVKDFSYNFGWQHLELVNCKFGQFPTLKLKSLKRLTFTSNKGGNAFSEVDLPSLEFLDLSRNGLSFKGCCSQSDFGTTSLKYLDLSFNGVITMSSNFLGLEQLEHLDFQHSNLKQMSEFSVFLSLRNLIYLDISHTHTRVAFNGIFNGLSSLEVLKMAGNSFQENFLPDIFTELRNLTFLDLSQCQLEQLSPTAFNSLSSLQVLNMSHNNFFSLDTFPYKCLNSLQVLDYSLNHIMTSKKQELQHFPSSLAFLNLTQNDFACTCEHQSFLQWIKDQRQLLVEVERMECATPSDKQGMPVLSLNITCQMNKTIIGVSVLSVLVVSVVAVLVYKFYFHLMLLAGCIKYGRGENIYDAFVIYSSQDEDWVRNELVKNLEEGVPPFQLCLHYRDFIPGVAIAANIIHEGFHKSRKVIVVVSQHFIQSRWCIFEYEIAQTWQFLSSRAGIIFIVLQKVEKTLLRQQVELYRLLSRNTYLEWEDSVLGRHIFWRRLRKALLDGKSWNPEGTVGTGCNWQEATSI
T2 sequence (Q99836 whole entry): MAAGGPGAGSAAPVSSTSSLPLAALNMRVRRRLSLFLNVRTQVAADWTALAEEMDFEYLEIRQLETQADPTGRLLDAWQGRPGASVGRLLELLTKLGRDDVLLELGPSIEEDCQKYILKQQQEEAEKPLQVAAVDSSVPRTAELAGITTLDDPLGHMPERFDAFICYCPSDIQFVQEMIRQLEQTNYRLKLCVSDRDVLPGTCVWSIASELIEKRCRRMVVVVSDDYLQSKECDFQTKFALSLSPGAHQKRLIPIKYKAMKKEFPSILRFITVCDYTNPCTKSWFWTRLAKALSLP

B1: TIP1 (Toll-like receptor inhibitory peptide 1) (peptide)
peptide: RQIKIWFQNRRMKWKKSHCRVLLI
B1: the binding result in assay [1] was “binds”.

B2: TIP1-FITC (peptide)
peptide: {FITC′}-RQIKIWFQNRRMKWKKSHCRVLLI
notes: used for confocal microscopy; also called TIP1 (TIP1-FITC)
As to B2, the binding result in assay [2] and in assay [3] was “binds” each time.
